Source: article doi:10.1101/2021.09.03.458953
Where two headings read alike, the source gives them in different places.

Tests used:
[1] = molecular target: Sarbecovirus (SARS-CoV-2 / SARS-CoV) spike C-terminal hepta-peptide, wild type (UniProt P0DTC2); details: pH 7.5; 25°C; 150 mM NaCl
[2] = molecular target: Sarbecovirus (SARS-CoV-2 / SARS-CoV) spike C-terminal hepta-peptide, wild type (UniProt P0DTC2); details: pH 7.5; 25°C; 150 mM NaCl; remark: listed apart in the source
[3] = molecular target: Sarbecovirus (SARS-CoV-2 / SARS-CoV) spike C-terminal hepta-peptide, wild type (UniProt P0DTC2); details: pH 6.5; 25°C; 150 mM NaCl

Substance: Coatomer subunit alpha N-terminal WD40 domain (alphaCOPI-WD40) L181K;L185K;I192K;L196K;F197K
- equilibrium KD [1]: 4170 ± 40 nM
- kinetic KD [2]: 2750 ± 90 nM
- equilibrium KD [3]: 1400 ± 150 nM
